Measurements from the supplement of paper PMC7125110.
± gives the standard error. This sample holds only a part of the variants without activity.

B1: glmS ribozyme (parent)
chain: AUAAAAGCGCCAGAACUACAGAAAUGUAGUUGACGAGGAGGAGGUUUAUCGAAUUUUCGGCGGAUGCCUCCAAA

Variants of: B1
Experiment: self-cleavage kobs at 10000 uM GlcN6P; higher = faster cleavage; RNA array
Details: with glucosamine-6-phosphate
How it was run: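 kobs was derived by fitting per-tile medians to one- or two-exponential decays after normalising signals to baseline and to non-cleaving reference variants. Those signals came from barcoded ribozyme variants transcribed in situ by E. coli RNA polymerase on sequenced MiSeq chips, followed through a hybridised Cy3 probe at 37 °C and imaged over ~14 h. Glucosamine-6-phosphate (40 μM to 10 mM) in HEPES/KCl/Mg(OAc)2 buffer was flowed in. Weighted Michaelis–Menten fits across concentrations then gave kcat and KM.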
For A36U A42U C61U, the “self-cleavage kobs at 10000 uM GlcN6P” value was < 1e-05 s⁻¹.
With A64G G66C C67A the “self-cleavage kobs at 10000 uM GlcN6P” value was 0.000252 ± 7.2e-05 s⁻¹.
In the case of U46G C50G C67G, the “self-cleavage kobs at 10000 uM GlcN6P” value is reported as < 1e-05 s⁻¹.
U56G G60C was tested, and the “self-cleavage kobs at 10000 uM GlcN6P” value was < 1e-05 s⁻¹.
C34A G41A C68G was tested, and the “self-cleavage kobs at 10000 uM GlcN6P” value was < 1e-05 s⁻¹.
For A42U C58U G59U U65A C70G, the “self-cleavage kobs at 10000 uM GlcN6P” value was < 1e-05 s⁻¹.
With U47C A53U C68G the “self-cleavage kobs at 10000 uM GlcN6P” value was 3.22e-05 ± 1.4e-05 s⁻¹.
With U31A A33G C67A the “self-cleavage kobs at 10000 uM GlcN6P” value was < 1e-05 s⁻¹.
For A33U G40C U56A G60C C71U, the “self-cleavage kobs at 10000 uM GlcN6P” value was < 1e-05 s⁻¹.
With A48U G59U C68A the “self-cleavage kobs at 10000 uM GlcN6P” value was < 1e-05 s⁻¹.
With A33U A39C A48C the “self-cleavage kobs at 10000 uM GlcN6P” value was < 1e-05 s⁻¹.
In the case of A42U G44C G62U C70G, the “self-cleavage kobs at 10000 uM GlcN6P” value is reported as < 1e-05 s⁻¹.
U47A U65G G66U was tested, and the “self-cleavage kobs at 10000 uM GlcN6P” value was 0.00262 ± 0.00053 s⁻¹.
U47G G59A was tested, and the “self-cleavage kobs at 10000 uM GlcN6P” value was 3.68e-05 ± 1.3e-05 s⁻¹.
With U57G G62C the “self-cleavage kobs at 10000 uM GlcN6P” value was < 1e-05 s⁻¹.
For U30G G37C U45A A52G, the “self-cleavage kobs at 10000 uM GlcN6P” value was < 1e-05 s⁻¹.
With A48U A52G U55A A64G the “self-cleavage kobs at 10000 uM GlcN6P” value was 4.66e-05 ± 1.1e-05 s⁻¹.
With G40C G43U G51U the “self-cleavage kobs at 10000 uM GlcN6P” value was < 1e-05 s⁻¹.
With C34U G38C G60C the “self-cleavage kobs at 10000 uM GlcN6P” value was < 1e-05 s⁻¹.
For A42G U46A A64G, the “self-cleavage kobs at 10000 uM GlcN6P” value was 0.00462 ± 0.0009 s⁻¹.
A39G U49G was tested, and the “self-cleavage kobs at 10000 uM GlcN6P” value was 0.000904 ± 0.00021 s⁻¹.
With G40A U45C U65G C67G the “self-cleavage kobs at 10000 uM GlcN6P” value was 0.00034 ± 0.00012 s⁻¹.
For U55G C61A C71G, the “self-cleavage kobs at 10000 uM GlcN6P” value was < 1e-05 s⁻¹.
With G44A U46A the “self-cleavage kobs at 10000 uM GlcN6P” value was 0.000375 ± 6.2e-05 s⁻¹.
In the case of A39C G59A C68A, the “self-cleavage kobs at 10000 uM GlcN6P” value is reported as < 1e-05 s⁻¹.
In the case of A33G A42G G59U C61A, the “self-cleavage kobs at 10000 uM GlcN6P” value is reported as < 1e-05 s⁻¹.
With U30G A53U U69A the “self-cleavage kobs at 10000 uM GlcN6P” value was 4.29e-05 ± 1.8e-05 s⁻¹.
For U49A U65G C67G U69A, the “self-cleavage kobs at 10000 uM GlcN6P” value was < 1e-05 s⁻¹.
C34A A42C U65A was tested, and the “self-cleavage kobs at 10000 uM GlcN6P” value was < 1e-05 s⁻¹.
With U55C U57A the “self-cleavage kobs at 10000 uM GlcN6P” value was 0.00024 ± 4.6e-05 s⁻¹.
With U45C U65G C67U the “self-cleavage kobs at 10000 uM GlcN6P” value was 0.000112 ± 2.2e-05 s⁻¹.
In the case of C34A G51A C67G C70A, the “self-cleavage kobs at 10000 uM GlcN6P” value is reported as < 1e-05 s⁻¹.
In the case of U31A C58U, the “self-cleavage kobs at 10000 uM GlcN6P” value is reported as 4.45e-05 ± 6.1e-06 s⁻¹.
With A33G A48C the “self-cleavage kobs at 10000 uM GlcN6P” value was < 1e-05 s⁻¹.
For A36G G37C A42C A48C U65G, the “self-cleavage kobs at 10000 uM GlcN6P” value was < 1e-05 s⁻¹.
G38U A39C G44A was tested, and the “self-cleavage kobs at 10000 uM GlcN6P” value was < 1e-05 s⁻¹.
In the case of G32C G35C U49C C68A, the “self-cleavage kobs at 10000 uM GlcN6P” value is reported as < 1e-05 s⁻¹.
For U54A C58U, the “self-cleavage kobs at 10000 uM GlcN6P” value was 6.81e-05 ± 1e-05 s⁻¹.
For G40U G62U C68G, the “self-cleavage kobs at 10000 uM GlcN6P” value was < 1e-05 s⁻¹.
In the case of G37U G44U G60U, the “self-cleavage kobs at 10000 uM GlcN6P” value is reported as < 1e-05 s⁻¹.
In the case of A33C A39G U69G, the “self-cleavage kobs at 10000 uM GlcN6P” value is reported as < 1e-05 s⁻¹.
G32A G40A C68G was tested, and the “self-cleavage kobs at 10000 uM GlcN6P” value was < 1e-05 s⁻¹.
In the case of U46A C50A G59U, the “self-cleavage kobs at 10000 uM GlcN6P” value is reported as < 1e-05 s⁻¹.
With A36C G38U A39C G62U the “self-cleavage kobs at 10000 uM GlcN6P” value was < 1e-05 s⁻¹.
In the case of U31G A36U G40C U56G G66A, the “self-cleavage kobs at 10000 uM GlcN6P” value is reported as < 1e-05 s⁻¹.
With C58G G62U the “self-cleavage kobs at 10000 uM GlcN6P” value was < 1e-05 s⁻¹.
A39C G44C C50G U55G C67U was tested, and the “self-cleavage kobs at 10000 uM GlcN6P” value was < 1e-05 s⁻¹.
In the case of G40C A53G G66C, the “self-cleavage kobs at 10000 uM GlcN6P” value is reported as 0.000137 ± 2.8e-05 s⁻¹.
For G43A A53U G59C G60U, the “self-cleavage kobs at 10000 uM GlcN6P” value was < 1e-05 s⁻¹.
For A33G A42C U47C G60A, the “self-cleavage kobs at 10000 uM GlcN6P” value was < 1e-05 s⁻¹.
For A39G U65G C70U, the “self-cleavage kobs at 10000 uM GlcN6P” value was 0.0203 ± 0.0059 s⁻¹.
For U46G C61G G63A, the “self-cleavage kobs at 10000 uM GlcN6P” value was < 1e-05 s⁻¹.
With G38C U49A G51U C71U the “self-cleavage kobs at 10000 uM GlcN6P” value was < 1e-05 s⁻¹.
With G44U U65A the “self-cleavage kobs at 10000 uM GlcN6P” value was 5.28e-05 ± 1.3e-05 s⁻¹.
In the case of U30G U47C U54C C67U, the “self-cleavage kobs at 10000 uM GlcN6P” value is reported as 5.7e-05 ± 2.2e-05 s⁻¹.
G35C A42U C71U was tested, and the “self-cleavage kobs at 10000 uM GlcN6P” value was < 1e-05 s⁻¹.
In the case of G59C A64U C71G, the “self-cleavage kobs at 10000 uM GlcN6P” value is reported as < 1e-05 s⁻¹.
For G43A U55G U57A U65G, the “self-cleavage kobs at 10000 uM GlcN6P” value was < 1e-05 s⁻¹.
G41C C58A C61U was tested, and the “self-cleavage kobs at 10000 uM GlcN6P” value was < 1e-05 s⁻¹.
For A48U G59U A64G, the “self-cleavage kobs at 10000 uM GlcN6P” value was < 1e-05 s⁻¹.
In the case of U31C C67G C70A, the “self-cleavage kobs at 10000 uM GlcN6P” value is reported as < 1e-05 s⁻¹.
In the case of G32U G43U U69C, the “self-cleavage kobs at 10000 uM GlcN6P” value is reported as < 1e-05 s⁻¹.
